# Experiment: yeast display, Sf9 membrane polyspecificity reagent, FACS + sequencing; frameworks hold sequencing errors
# Summary of the method: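 Using colony PCR, genes from sorted yeast display clones were amplified, then sequenced on MiSeq at 2 × 250 and filtered by CDR length. The clones had been stained with 10% biotinylated, detergent-solubilized Sf9 membrane reagent for 1 hour at 4 °C and sorted by FACS into low and high (top ~1%) gates on anti-HA and streptavidin fluorescence. Polyreactivity labels come from the gate of origin.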
row,Sequence,polyreactivity (PSR sort gate)
1,QVQLVESGGGLVQAGGSLRLTCAASGYIFYRYALGWYRKAPGKERELVAAINSGGSTYYADSVKGRFTISRDNAKNTVYLQMNSLKPEDTAVYYCNVLGWWHVWVYDYWGQGTQVTVSS,high polyreactivity
2,QVQLVESGGGLVQAGGSLRLTCAASGYIIDWNTMVCYRHEPGKERELVAAITESSGSTYYADSVKGRFTISRDNAKNTVYLQMNSLKPEDTAVYYCAAELDVFVSICSRFHFEYWGQGTQVTVSS,low polyreactivity
3,QVQLVESGGGLVQAGGSLRLTCAASGYKFKSNVMGWYRQAPGKERELVAAISWSGGRTYYADSLKGRFTISRDNAKNTVYLQMNSLKPEDTAVYYCAAVGRQSNYYVDYDYWGQGTQVTVSS,high polyreactivity
4,QVQLVESGGGLVQAGGSLRLTCAASGYTFRAYVMGWYRQAPGKERELVAGITRRGGTTYYADSVKGRFTISRYNAKNTVYLQMNSLKPEDTAVYYCNAVYRSGSIPYDSWGQGTQVTVSS,high polyreactivity
5,QVQLVESGGGLVQAGGSLRLTCAASGYTFVLNALGWYRQAPGKEREFVAAITWSGGSTYYADSVKGRFTISRDNAKNTVYLQMNSLKAEDTAVYYCAADPDSGQVPFDYWGQGTQVTVSS,low polyreactivity
6,QVQLVESGGGLVQAGGSLRLTCAASGYTFYPYAMGWYRQAPGKERELVAAISWSGGSTYYADSVKGRFTISRDNAKNTVYLQMNSLKPEDTAVYYCNADSGWFGYDYWGKGTQVTVSS,low polyreactivity
7,QVQLVESGGGLVQAGGSLRLTCAASVSIFSVYARGWYRQAPGKERELVADINIGGASTYYADSVKGRFTISRDNAKNTVFLQMNSVIPEDTAVYSCAKEYYEGYFPTFDYDYWGQGTQVNVSS,low polyreactivity
8,QVQLVESGGGLVQAGGSLRLTCAASVSTIAGNAMGWYRQAPGKERELVAVITRVGSTNYADSVKGRFTISRDNAKNTVYLQMKSLKPEDTEVYYCARYGFLLDYWRGGYYWGQGTQVTVSS,high polyreactivity
9,QVQLVESGGGLVQAGGSLRLTCDASGSTFVYYAMGWYRQAPGKERELVAAITFSGGTTFYADSVKGRFTISRDNANNTVYLQMNSLKPEDTAVYYCAADAGFADQYANYHGDDYWGQGTQVTVSS,low polyreactivity
10,QVQLVESGGGLVQAGGSLRRTCAASGSIFVGYAMGWYRQEPGKERELVASITNGDSTNYADSVKGRFTISRDNAKNTVSYQMNSLKPEDTAVYYCAADYYSVHPSGWYGYEYWGQGTQVTVSS,low polyreactivity
11,QVQLVESGGGLVQAGGSLRVSCAASGCTFVDYAMCWYRQAPGKERELVAGITSGGSTNYADSVKGRFTISRDNAKNTVYLQMNSVKPEDTAVYDCNADPGQDTPGYTRPEYDYWGQGTQVTVSS,low polyreactivity
12,QVQLVESGGGLVQAGGSLRVSCAASGFTFSHYAMGWYRQAPGKERELVAAISWGGGSTYYADSVKGRFTISRDNAQNTVYLQMNSLKPEDTAVYYCAARYVLFSNRFDYWGQGTQVTVSS,high polyreactivity
13,QVQLVESGGGLVQAGGSLRVSCAASGFTFYGYAMGWSRQAPGKEREVVAAISWSGGSTYYADSVKGRFTISRDNAKNTVYLLMNRLKAEDTAVYYCAKKWTAPGKGYPRSPGGYGYWGQGTQVTVSS,high polyreactivity
14,QVQLVESGGGLVQAGGSLRVSCAASGIIFGPYVMGWSRQAPGKERELVATISRTGDTYYADSVKGRFTISRDNAKNTVYLQMNSLKPEDTAVYYCNTQDHGYGFTMDYWGQGTQVTVSS,low polyreactivity
15,QVQLVESGGGLVQAGGSLRVSCAASGISFGHYTMGWYRQATGKERELVATITTSGGRTYYADSVKGRFTISRDNAKNTVYLQMNSLKPEDTAVYYCATLSWYPFEYWGQGTQVTVSS,high polyreactivity
16,QVQLVESGGGLVQAGGSLRVSCAASGLTFRFYAMGWYRQAPGKERELVAAISTSGGSTYYADSVKGRFTISRDNAMNTVYLQMNSLKPEDTAVYYCAARARYYHSRYDYWGQGTQVTVSS,high polyreactivity
17,QVQLVESGGGLVQAGGSLRVSCAASGLTSIHYMGWYRQAPGKERELVATITSSTGSTYYADSVKGRFTISRDNAKNTVYLQMNSLKPEDTAVDYCAAESFGADGPYQPSYDYWGQGTQVTVSS,low polyreactivity
18,QVQLVESGGGLVQAGGSLRVSCAASGNIFGEYAMGWYRQAPGKERELVAAITNSGGRTHYADSVKGRFTISRDNAKNTVYLQMNSLKPEDTAVYYCAAPTKYRSRRYYWGQGTQVTVSS,high polyreactivity
19,QVQLVESGGGLVQAGGSLRVSCAASGRIFILNTMGCYRQAPGKETELVAGISYSGSTYYADSVKGRFTISRDNAKNTVYLQMNSLKPEATAVYYCAAEYDAAWYNEGYYYWGQGTQVTVSS,low polyreactivity
20,QVQLVESGGGLVQAGGSLRVSCAASGRIIGQYAMGWSRQAPGKEWELVASISRRGGSTYYAASVKGRFTISRDNAKKTVYLQMYSLKPEDTAVYYCAKERTYGHYDYWGQGTQVTVSS,high polyreactivity
21,QVQLVESGGGLVQAGGSLRVSCAASGRTFGIYAMGWYRQAPGKEREFVAAISWSGTSTHYADSVKGRFTISRDNAKNTFYLQMNSLKPEDTAVYYCATRRSHYGKYDYWGQGTQVTVSS,high polyreactivity
22,QVQLVESGGGLVQAGGSLRVSCAASGSIFIGYAMGWSRQAPGKERELVAAINDSGDRTYYADSVKGRFTISRDNAKNTVYLQMNSLKPEDTAVYYCAADLVSLDPEYDYWGQGTQVTVSS,low polyreactivity

row,Sequence,polyreactivity (PSR sort gate)
1,QVQLVESGGGLVQAGGSLRVSCAASGSNFGGYAMGWYRQAPGKERELVAAISSRGIDTTYADSVKVRFTISRDNAKNTVYLQMYSLKPDDTAVYYCAEFVSDATVGPSNGLDYWGQGTQVTVSS,low polyreactivity
2,QVQLVESGGGLVQAGGSLRVSCAASGSTCDVNAMGWYRQAPGKERELVAAMSWSDDATYYAYSVKGRFTISRDNAKNTVYVQMNSLKPEDTAVYYCAADGRYGWYYAVYNGEDYWGQGTQVTVSS,high polyreactivity
3,QVQLVESGGGLVQAGGSLRVSCAASGSTFPYYTMGWYRQAPGKERELVDVMTIRGGSTYYAHSVNGRCTHSRDNAKNTVNLQMNSLKPEDTAVNYCAPTGQLQGWYDMYYWGQGTQVTVSS,low polyreactivity
4,QVQLVESGGGLVQAGGSLRVSCAASGSTFVRNAMGGYRQAPGKETELVAFISTSGTRTHYADSVKGRFTISRDNAKNTVYFQMNSLKPEDTAVYYCNRRVYGIVTRDYWGQGTQVTVSS,high polyreactivity
5,QVQLVESGGGLVQAGGSLRVSCAASGYTFVIYAMGWYRQAPGKERELVAAITTIGGRTYYADSVKGRFTISRDNAKNTVYLQMYSLKPEDTAVYYCATAAVTPVWYDYWGQGTQVTVSS,low polyreactivity
6,QVQLVESGGGLVQAGGSLRVSSAASGRIFYLYVMAWYRQAPGKERELVAGITGSGGNTYYADSVKGRCTISRDNAKNTVDLQMNSLKPEDTAVYFCNDRFRARPRMGYWGQATQVTVSS,high polyreactivity
7,QVQLVESGGGLVQAGGSLSISCAASGLTFSYYAMGWYRQAPGKERELGAAIAGRTGRPYYADSVKGRFTISRDNAKNTVYLQMNSLKPEDTAVFYSAAGYTFSRYDDDYWGQGTQVTVSS,low polyreactivity
8,QVQLVESGGGLVQAGGSLSISCAASGRNFGYYTMGWYRQAPGKERELGAAITSGGRTNYADSVKGRFTISRDNAKNTVYLQMNSLKPEDTAVYYCNARRDSTRRGTWYEYWGQGTQVTVSS,high polyreactivity
9,QVQLVESGGGLVQAGGSLSLICAASGGIIRYKAMGWYRQAPGKERELVAAISSGGNTNYADSVKGRFTISRDNAKNTVNLQMNSLKPEDTAVYYSAKAAPWRVYYHKAYGYDYWGQGPQVTVSS,high polyreactivity
10,QVQLVESGGGLVQAGGSLSLICAASGRTSVVNAMGWYRKAPGKERELVAAITSGGSTHYADSVKGRFTISRDNAKNTVYLQMNSLKPEDTAVYYCTKRGHPARLGYYYWGQGTQVTVSS,low polyreactivity
11,QVQLVESGGGLVQAGGSLSLICAASGSTITYNAMGWYRQAPGKETELVAAIDWDGDTTYYADSVKGRFTISRDNAKNTVYLQMNSLKPEDTAVYYCAAEFYSLGKAIYEYWGQGTQVTVSS,high polyreactivity
12,QVQLVESGGGLVQAGGSLSLRCAASGRIFTVYAMVWYRPAPGKEMELVAAISKRDGSTSYADSVKGRFTISRDNAKNTVYLQMNSLKPEDTAVYYCNARNHVQVLFRRDYWGQGTQVTVSS,low polyreactivity
13,QVQLVESGGGLVQAGGSLSLSCAASGATFVRNAMGWYRQAPGKERELVAVISFRGGRTYYADSVKGRFTISRDNAKNTVYLQMNSLNPEDTAVYYCAKDRVASGVISSVDSWGQGTLVTVSS,low polyreactivity
14,QVQLVESGGGLVQAGGSLSLSCAASGFNFGVNTRGWDRQAPGKERELVAAITGSGSSTDYADSVKGRFTISRDNAKNPVYLQMHRLKPEDTAVYYCAASYYSNYPTYLRYYDWGQGTQVTVSS,high polyreactivity
15,QVQLVESGGGLVQAGGSLSLSCAASGIFSRYAMGWYRQAPGKERELVAAISSGGSTYYAESVKGRFTISRDNAKNTVYLQMNSLKPEDTAVYYCSVKQRDKFAGGRNDYWGQGTQVTVSS,high polyreactivity
16,QVQLVESGGGLVQAGGSLSLSCAASGIIFGLYTMGWYRQAPGKERELVAAISDSGGRTYYADSVKGRFTISRDNAKNTVYLQMNSLKPEETAVYYCAAEFWYVWEYNYWGQCTQVTVSS,high polyreactivity
17,QVQLVESGGGLVQAGGSLSLSCAASGINFWRYAMGWYRPAPGKERELVAGITSRGGSTYYADSVKGRFTISRDNAKNTVYLQMNSLKPEDTAVYYCNADWYGQLWWGVDYWGQGTQVTVSS,high polyreactivity
18,QVQLVESGGGLVQAGGSLSLSCAASGLILRSYAMGWYRQAPWKERELVAAISGSGGRTYYADSVKGRFTISRDNAKNTVYLLMNSLKPEDTAVYYCAAGWTYRQNGYWGQGTQVTVSS,high polyreactivity
19,QVQLVESGGGLVQAGGSLSLSCAASGLTFPKYAMGWYRQAPGKERELVDRISYSGASTYYADSVKGRFTISRDNAKNTVYLQMNSLKPEDTAVYYCAARIYRVYYVDFAPYYYWGQGTQVTVSS,high polyreactivity
20,QVQLVESGGGLVQAGGSLSLSCAASGLTFYNYAMGWYRQAPGTERELVAAISRSGRTYYADSVKGRFTISRDNAKNTVDLQMNSLKPEDTAVYYCAAGHGGDPGSGYWGQGTEVTVSS,high polyreactivity
21,QVQLVESGGGLVQAGGSLSLSCAASGNIFSYNAMGWYRQAPGKERELVAAITWAGSTYADSVKGRFTISRDNAKNTVFLQRNSLKPEDTAVYYCNAANDSGYDYWGQGTQVTVSS,low polyreactivity
